Key:
R.DpnI R231A = molecular target: T1, R.DpnI R231A (UniProt P0A460 1-254, R231A); assay: filter binding
T1 sequence: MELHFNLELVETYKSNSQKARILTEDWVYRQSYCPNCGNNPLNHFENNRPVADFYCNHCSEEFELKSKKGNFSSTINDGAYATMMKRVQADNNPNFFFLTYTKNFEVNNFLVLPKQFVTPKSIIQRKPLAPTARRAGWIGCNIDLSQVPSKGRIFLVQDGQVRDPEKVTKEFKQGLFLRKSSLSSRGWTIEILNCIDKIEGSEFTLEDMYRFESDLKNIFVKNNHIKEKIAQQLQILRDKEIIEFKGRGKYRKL

R.DpnI wH domain = molecular target: T2, R.DpnI wH domain (UniProt P0A460 181-254); assay: filter binding
T2 sequence: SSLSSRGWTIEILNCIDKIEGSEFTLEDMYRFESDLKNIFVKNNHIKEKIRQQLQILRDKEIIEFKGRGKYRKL

B1: nmDNA (dsDNA)
DNA 1: ATATGGGATCGTCAGTCAGCG
DNA 2: CGCTGACTGACGATCCCATAT
binding result (R.DpnI R231A): no binding

B2: hmDNA (dsDNA)
DNA 1: ATATGGGATCGTCAGTCAGCG
DNA 2: CGCTGACTGACGATCCCATAT
modifications: m6A in GATC on one strand only (which strand not recoverable from text)
binding result (R.DpnI R231A): no binding

B3: mDNA (dsDNA)
DNA 1: ATATGGGATCGTCAGTCAGCG
DNA 2: CGCTGACTGACGATCCCATAT
modifications: m6A at position 8 of strand 1 and position 13 of strand 2 (5'-3')
binding signal (R.DpnI wH domain): 2e+06 counts
